# Tests used:
# Assay type in all cases: cell-based, human
# CFPAC1 cells [1] = test: Transcriptional changes to EMT genes, qPCR
# Protocol: The CFPAC1 cell line was cultured in DMEM media (Gibco #11960) supplemented with 10% FBS (Sigma), 2 mM L Glutamine (Gibco), at 37° C., 5% CO2. For 7 day treatments, cells were seeded on tissue culture plastic in complete growth media and allowed to attach overnight at cell densities that would provide approximately 60-80% confluence at end of experiment. Ligand and/or inhibitor was added the following day (Day 0) in complete growth media and incubated at 37° C., 5% CO2. Ligand source and concentrations used are as follows: [1] From R&D systems, SDF-1α (stromal derived factor-1 alpha) at 100 ng/ml, TRANCE (TNF-related activation induced cytokine) at 50 ng/ml, FGF1 (fibroblast growth factor acidic) at 10 ng/ml, FGF2 (fibroblast growth factor basic) at 10 ng/ml, BMP4 (bone morphogenetic protein 4) at 100 ng/ml, BMP7 (bone morphogenetic protein 7) at 100 ng/ml, IGF2 (insulin-like growth factor 2) at 100 ng/ml, OSM (Oncostatin M) at 100 ng/ml, NRG1 (Neuregulin-1) at 50 ng/ml, PDGFaa (Platelet derived growth factor a) at 50 ng/ml, PDGFbb (platelet derive growth factor b) at 30 ng/ml, Ang2 (Angiopoeitin 2) at 400 ng/ml, amphiregulin at 100 ng/ml, HMGB 1 (Human high-mobility group box 1 protein) at 50 ng/ml; [2] From Genscript, LIF (Leukemia inhibitory factor) at 20 ng/ml, GM-CSF (Granulocyte macrophage colony stimulating factor) at 25 ng/ml, M-CSF (Macrophage colony stimulating factor) at 50 ng/ml; [3] From Anaspec, PAR1 (Protease activated receptor 1 agonist) at 100 μM; PAR2 (Protease activated receptor 2 agonist; peptide SLIGKV-NH2, Cat. No. 60217-1) at 100 μM; PAR4 (Protease activated receptor […] agonist; peptide AYPGKF-NH2, Cat. No. 60218-1) at 100 μM; [4] From Peprotech, HGF (Hepatocyte Growth Factor) at 100 ng/ml; IL-31 (Interleukin-31) at 50 ng/ml, IL-33 (Interleukin-33) at 50 ng/ml, IL1-a (Interleukin-1 alpha) at 10 ng/ml, CTGF (Connective tissue growth factor) at 20 ng/ml, WISP1 (Wnt-1 inducible signaling pathway protein) at 20 ng/ml, PTHrP ([…] hormone-related protein) at 50 ng/ml, MCP1 (monocyte chemotactic protein-1) at 50 ng/ml; and [5] from Sigma, Fulvestrant at 1 μM. Fresh medium containing ligand and/or inhibitor was added 3-4 days after initial dose, and at Day 7 cells were harvested for western blot analysis.
# Cells were plated and treated with ligand for one or 7 days. At the time of harvest, cells were trypsinized and snap frozen for later use. Total RNA was isolated using RNAqueous-4 PCR Kit (Ambion, AM1914). For qPCR on tumor material, the tumor samples were homogenized using a small tissue homogenizer (Ultra-Turrax T8 from IKA-Werke) in 175ul RNA lysis buffer. Homogenization was for 1 minute on ice. RNA was isolated using the SV Total RNA Isolation System (Promega Cat #Z3100) according to the manufactures instructions. Samples were DNase treated using the Turbo DNA-Free kit (Ambion, AM1907) and reverse transcribed using Superscript III (Invitrogen, 18080-044) for qPCR analysis. Taqman primers and Locked-Nucleic Acid probes were designed using ProbeFinder software (Universal Probe library, Roche). For mRNA analysis, real time PCR was performed using the ABI 7900HT series PCR machine. Thermocycle conditions were as follows: 50° C. for 2 minutes, 95° C. for 10 minutes, 95° C. for 15 seconds, 50° C. for 10 seconds, 60° C. for 1 minute. Data was collected over 45 cycles and then normalized to GAPDH and further normalized to the untreated control sample.
# CFPAC-1 cells = test: Cell morphology by light microscopy; settings: treated 7 days; versus untreated cells that formed colonies
# Protocol: The CFPAC1 cell line was cultured in DMEM media (Gibco #11960) supplemented with 10% FBS (Sigma), 2 mM L Glutamine (Gibco), at 37° C., 5% CO2. For 7 day treatments, cells were seeded on tissue culture plastic in complete growth media and allowed to attach overnight at cell densities that would provide approximately 60-80% confluence at end of experiment. Ligand and/or inhibitor was added the following day (Day 0) in complete growth media and incubated at 37° C., 5% CO2. Ligand source and concentrations used are as follows: [1] From R&D systems, SDF-1α (stromal derived factor-1 alpha) at 100 ng/ml, TRANCE (TNF-related activation induced cytokine) at 50 ng/ml, FGF1 (fibroblast growth factor acidic) at 10 ng/ml, FGF2 (fibroblast growth factor basic) at 10 ng/ml, BMP4 (bone morphogenetic protein 4) at 100 ng/ml, BMP7 (bone morphogenetic protein 7) at 100 ng/ml, IGF2 (insulin-like growth factor 2) at 100 ng/ml, OSM (Oncostatin M) at 100 ng/ml, NRG1 (Neuregulin-1) at 50 ng/ml, PDGFaa (Platelet derived growth factor a) at 50 ng/ml, PDGFbb (platelet derive growth factor b) at 30 ng/ml, Ang2 (Angiopoeitin 2) at 400 ng/ml, amphiregulin at 100 ng/ml, HMGB 1 (Human high-mobility group box 1 protein) at 50 ng/ml; [2] […]
# CFPAC1 cells [2] = test: 2D immunofluorescence of E-cadherin and vimentin; settings: cells treated 7 days with ligand, compared to untreated cells
# Protocol: Cells were plated on coverslips and stimulated with ligand the following day (day 0). On day 4, medium and ligands were refreshed. After 7 days, the cells were fixed in 4% paraformaldehyde (EMS#15701)/PBS (Gibco #14190) for 10 minutes at room temperature, and then permeabilized in 0.1% Triton X-100 (Sigma #P1379)/PBS for 10 minutes. Cells were blocked in 3% BSA/PBS for one hour and incubated in primary antibody solution (E-cadherin, Santa Cruz #sc21791 and Vimentin, Chemicon #AB5733 in blocking buffer) for two hours at room temperature. Cells were washed in PBS and incubated in secondary antibody (Invitrogen #A11029 and Chemicon #AP194R) for one hour followed by nuclear counterstain TO-PRO3 (Invitrogen #T3605). Coverslips were mounted on slides with Pro-Long Gold antifade reagent (Invitrogen P36934). Images were captured on a Leica DMRXE microcope with SP2 scanner using Leica Confocal Software.
molecule,measurement,setting,value
"OSM: Oncostatin M from R&D systems, used at 100 ng/ml (protein, UniProt P13725 26-221, looked up) Oncostatin-M: AAIGSCSKEYRVLLGQLQKQTDLMQDTSRLLDPYIRIQGLDVPKLREHCRERPGAFPSEETLRGLGRRGFLQTLNATLGCVLHRLADLEQRLPKAQDLERSGLNIEDLEKLQMARPNILGLRNNIYCMAQLLDNSDTAEPTKAGRGASQPPTPTPASDAFQRKLEGCRFLHGYHRFMHSVGRVFSKWGESPNRSRR",ACTN1 mRNA fold change,CFPAC1 cells [1]; ligand 1 Day,NC (Only changes greater than 3 fold are reported. NC indicates no change.)
same,CDH1 mRNA fold change,CFPAC1 cells [1]; ligand 1 Day,NC (Only changes greater than 3 fold are reported. NC indicates no change.)
same,CDH2 mRNA fold change,CFPAC1 cells [1]; ligand 1 Day,NC (Only changes greater than 3 fold are reported. NC indicates no change.)
same,ITGB3 mRNA fold change,CFPAC1 cells [1]; ligand 1 Day,31.39 fold
same,MMP7 mRNA fold change,CFPAC1 cells [1]; ligand 1 Day,NC (Only changes greater than 3 fold are reported. NC indicates no change.)
same,MTA3 mRNA fold change,CFPAC1 cells [1]; ligand 1 Day,NC (Only changes greater than 3 fold are reported. NC indicates no change.)
same,PLAUR mRNA fold change,CFPAC1 cells [1]; ligand 1 Day,NC (Only changes greater than 3 fold are reported. NC indicates no change.)
same,SNAI1 mRNA fold change,CFPAC1 cells [1]; ligand 1 Day,NC (Only changes greater than 3 fold are reported. NC indicates no change.)
same,SNAI2 mRNA fold change,CFPAC1 cells [1]; ligand 1 Day,NC (Only changes greater than 3 fold are reported. NC indicates no change.)
same,SPARC mRNA fold change,CFPAC1 cells [1]; ligand 1 Day,NC (Only changes greater than 3 fold are reported. NC indicates no change.)
same,TWIST1 mRNA fold change,CFPAC1 cells [1]; ligand 1 Day,NC (Only changes greater than 3 fold are reported. NC indicates no change.)
same,VIM mRNA fold change,CFPAC1 cells [1]; ligand 1 Day,NC (Only changes greater than 3 fold are reported. NC indicates no change.)
same,ZEB1 mRNA fold change,CFPAC1 cells [1]; ligand 1 Day,NC (Only changes greater than 3 fold are reported. NC indicates no change.)
same,ZEB2 mRNA fold change,CFPAC1 cells [1]; ligand 1 Day,3.52 fold
same,ACTN1 mRNA fold change,CFPAC1 cells [1]; ligand 7 Day,NC (Only changes greater than 3 fold are reported. NC indicates no change.)
same,CDH1 mRNA fold change,CFPAC1 cells [1]; ligand 7 Day,−3.06 fold
same,CDH2 mRNA fold change,CFPAC1 cells [1]; ligand 7 Day,NC (Only changes greater than 3 fold are reported. NC indicates no change.)
same,ITGB3 mRNA fold change,CFPAC1 cells [1]; ligand 7 Day,106.2 fold
same,MMP7 mRNA fold change,CFPAC1 cells [1]; ligand 7 Day,NC (Only changes greater than 3 fold are reported. NC indicates no change.)
same,MTA3 mRNA fold change,CFPAC1 cells [1]; ligand 7 Day,NC (Only changes greater than 3 fold are reported. NC indicates no change.)
same,PLAUR mRNA fold change,CFPAC1 cells [1]; ligand 7 Day,NC (Only changes greater than 3 fold are reported. NC indicates no change.)
same,SNAI1 mRNA fold change,CFPAC1 cells [1]; ligand 7 Day,NC (Only changes greater than 3 fold are reported. NC indicates no change.)
same,SNAI2 mRNA fold change,CFPAC1 cells [1]; ligand 7 Day,NC (Only changes greater than 3 fold are reported. NC indicates no change.)
same,SPARC mRNA fold change,CFPAC1 cells [1]; ligand 7 Day,−33 fold
same,TWIST1 mRNA fold change,CFPAC1 cells [1]; ligand 7 Day,3.3 fold
same,VIM mRNA fold change,CFPAC1 cells [1]; ligand 7 Day,NC (Only changes greater than 3 fold are reported. NC indicates no change.)
same,ZEB1 mRNA fold change,CFPAC1 cells [1]; ligand 7 Day,3.00 fold
same,ZEB2 mRNA fold change,CFPAC1 cells [1]; ligand 7 Day,13.7 fold
same,Cell morphology,CFPAC-1 cells,less compact with more elongated cell morphology
same,E-cadherin and vimentin staining,CFPAC1 cells [2],strong vimentin staining with no E-cadherin

# Reference: patent US8642834B2, “Methods for the identification of agents that inhibit mesenchymal-like tumor cells or their formation” (OSI Pharmaceuticals, LLC, priority 2009, dated 2014)
